Laboratory results from the Immune Epitope Database (IEDB).

What was measured:
[1] = molecular target: HLA-A*02:01; test: IEDB peptide-MHC binding, purified MHC/direct/fluorescence; filed as Kd, often an IC50 or EC50 that approximates it; ≥ and ≤ were set here for values at or beyond the usual limits of such assays; details: source organism: Mycobacterium tuberculosis
[2] = molecular target: HLA-A*31:01; test: as above; details: source organism: Mycobacterium tuberculosis
[3] = molecular target: HLA-B*58:01; test: as above; details: source organism: Mycobacterium tuberculosis
[4] = molecular target: HLA-B*07:02; test: as above; details: source organism: Mycobacterium tuberculosis
[5] = molecular target: HLA-B*48:01; test: as above; details: source organism: Mycobacterium tuberculosis
[6] = molecular target: HLA-A*11:01; test: as above; details: source organism: Mycobacterium tuberculosis
[7] = molecular target: HLA-B*40:01; test: as above; details: source organism: Mycobacterium tuberculosis
[8] = molecular target: HLA-B*27:05; test: as above; details: source organism: Mycobacterium tuberculosis
[9] = molecular target: HLA-A*69:01; test: IEDB peptide-MHC binding, purified MHC/competitive/fluorescence; filed as Kd, often an IC50 or EC50 that approximates it; ≥ and ≤ were set here for values at or beyond the usual limits of such assays; details: source organism: Mycobacterium tuberculosis C
[10] = molecular target: HLA-A*26:02; test: as above; details: source organism: Mycobacterium tuberculosis C
[11] = molecular target: HLA-B*35:01; test: as above; details: source organism: Mycobacterium tuberculosis C
[12] = molecular target: HLA-A*68:02; test: as above
[13] = molecular target: HLA-A*26:03; test: as above; details: source organism: Mycobacterium tuberculosis C
[14] = molecular target: HLA-A*26:01; test: as above
[15] = molecular target: HLA-A*01:01; test: as above
[16] = molecular target: HLA-B*15:17; test: as above; details: source organism: Mycobacterium tuberculosis C
[17] = molecular target: HLA-B*57:01; test: as above
[18] = molecular target: HLA-C*12:03; test: IEDB peptide-MHC binding, purified MHC/direct/fluorescence; filed as Kd, often an IC50 or EC50 that approximates it; ≥ and ≤ were set here for values at or beyond the usual limits of such assays; details: source organism: Bacillus anthracis str. A0488
[19] = molecular target: HLA-A*02:01; test: IEDB peptide-MHC binding, purified MHC/competitive/fluorescence; filed as Kd, often an IC50 or EC50 that approximates it; ≥ and ≤ were set here for values at or beyond the usual limits of such assays; details: source organism: Bacillus anthracis str. A0488
[20] = molecular target: HLA-B*58:01; test: as above; details: source organism: Bacillus anthracis str. A0488
[21] = molecular target: HLA-B*07:02; test: as above
[22] = molecular target: HLA-B*51:01; test: as above; details: source organism: Bacillus anthracis str. A0488
[23] = molecular target: HLA-A*11:01; test: as above; details: source organism: Bacillus anthracis str. A0488
[24] = molecular target: HLA-A*03:01; test: as above; details: source organism: Bacillus anthracis str. A0488
[25] = molecular target: HLA-B*27:03; test: as above; details: source organism: Bacillus anthracis str. A0488
[26] = molecular target: HLA-A*66:01; test: as above; details: source organism: Bacillus anthracis str. A0488
[27] = molecular target: HLA-B*18:01; test: as above; details: source organism: Bacillus anthracis str. A0488
[28] = molecular target: HLA-B*40:01; test: as above; details: source organism: Bacillus anthracis str. A0488
[29] = molecular target: HLA-B*46:01; test: as above; details: source organism: Bacillus anthracis str. A0488
[30] = molecular target: HLA-A*24:03; test: as above; details: source organism: Bacillus anthracis str. A0488
[31] = molecular target: HLA-B*08:01; test: as above; details: source organism: Bacillus anthracis str. A0488
[32] = molecular target: HLA-B*39:01; test: as above; details: source organism: Bacillus anthracis str. A0488
[33] = molecular target: HLA-B*44:02; test: as above; details: source organism: Bacillus anthracis str. A0488
[34] = molecular target: HLA-A*29:02; test: as above; details: source organism: Bacillus anthracis str. A0488
[35] = molecular target: HLA-B*15:01; test: as above; details: source organism: Bacillus anthracis str. A0488
[36] = molecular target: HLA-A*30:02; test: as above; details: source organism: Bacillus anthracis str. A0488
[37] = molecular target: HLA-B*27:05; test: as above; details: source organism: Bacillus anthracis str. A0488
[38] = molecular target: HLA-B*14:02; test: as above; details: source organism: Bacillus anthracis str. A0488
[39] = molecular target: HLA-B*53:01; test: as above; details: source organism: Bacillus anthracis str. A0488
[40] = molecular target: HLA-A*30:01; test: as above; details: source organism: Bacillus anthracis str. A0488
[41] = molecular target: HLA-A*80:01; test: IEDB peptide-MHC binding, purified MHC/direct/fluorescence; filed as Kd, often an IC50 or EC50 that approximates it; ≥ and ≤ were set here for values at or beyond the usual limits of such assays; details: source organism: Camelpox virus M-96
[42] = molecular target: HLA-A*30:01; test: as above; details: source organism: Variola virus
[43] = molecular target: HLA-A*26:02; test: as above; details: source organism: Yellow fever virus
[44] = molecular target: HLA-B*46:01; test: as above; details: source organism: Yellow fever virus
[45] = molecular target: HLA-B*15:01; test: as above; details: source organism: Yellow fever virus
[46] = molecular target: HLA-B*15:42; test: IEDB peptide-MHC binding, purified MHC/competitive/fluorescence; filed as Kd, often an IC50 or EC50 that approximates it; ≥ and ≤ were set here for values at or beyond the usual limits of such assays; details: source organism: Influenza A virus (A/swine/Hannover/1/1981(H1N1))
[47] = molecular target: HLA-C*14:02; test: as above; details: source organism: Influenza A virus (A/swine/Hannover/1/1981(H1N1))
[48] = molecular target: HLA-B*45:06; test: as above; details: source organism: Influenza A virus (A/swine/Hannover/1/1981(H1N1))
[49] = molecular target: HLA-B*27:20; test: as above; details: source organism: Influenza A virus (A/swine/Hannover/1/1981(H1N1))
[50] = molecular target: HLA-B*83:01; test: as above; details: source organism: Influenza A virus (A/swine/Hannover/1/1981(H1N1))
[51] = source organism: Mycobacterium tuberculosis C
[52] = source organism: Bacillus anthracis str. A0488

Sequence: LTFLDCLYY
- Kd [1]: ≥ 20 µM
- Kd [2]: ≥ 20 µM
- Kd [3]: 0.145 µM
- Kd [4]: ≥ 20 µM
- Kd [5]: ≥ 20 µM
- Kd [6]: 0.0733 µM
- Kd [7]: ≥ 20 µM
- Kd [8]: ≥ 20 µM
- Kd [9]: ≥ 20 µM
- Kd [10]: ≥ 20 µM
- Kd [11]: 0.0713 µM
- Kd [12, 51]: ≥ 20 µM
- Kd [13]: ≥ 20 µM
- Kd [14, 51]: 0.111 µM
- Kd [15, 51]: 0.004 µM
- Kd [16]: 0.0005 µM
- Kd [17, 51]: 0.187 µM

Sequence: FVMPIFEQI
- Kd [18]: 0.068 µM
- Kd [19]: ≥ 5 µM
- Kd [20]: ≥ 5 µM
- Kd [21, 52]: ≥ 5 µM
- Kd [22]: ≥ 20 µM
- Kd [23]: ≥ 5 µM
- Kd [24]: ≥ 20 µM
- Kd [25]: ≥ 20 µM
- Kd [12, 52]: 0.0003 µM
- Kd [26]: ≥ 5 µM
- Kd [27]: ≥ 20 µM
- Kd [28]: ≥ 5 µM
- Kd [29]: ≥ 20 µM
- Kd [30]: 0.0032 µM
- Kd [14, 52]: ≥ 20 µM
- Kd [31]: ≥ 5 µM
- Kd [32]: ≥ 20 µM
- Kd [33]: ≥ 5 µM
- Kd [34]: ≥ 5 µM
- Kd [35]: ≥ 20 µM
- Kd [36]: ≥ 5 µM
- Kd [15, 52]: ≥ 5 µM
- Kd [37]: ≥ 5 µM
- Kd [38]: ≥ 5 µM
- Kd [39]: ≥ 5 µM
- Kd [17, 52]: ≥ 20 µM
- Kd [40]: ≥ 5 µM

Sequence: ITYLMNRFK
- Kd [41]: ≥ 20 µM
- Kd [42]: ≤ 0.001 µM

Sequence: LVLAVGPAY
- Kd [43]: 0.544 µM
- Kd [44]: ≥ 20 µM
- Kd [45]: 0.0543 µM

Sequence: RRRFVQNAL
- Kd ([21]; source organism: Influenza A virus (A/swine/Hannover/1/1981(H1N1))): ≥ 20 µM
- Kd [46]: ≥ 5 µM
- Kd [47]: 0.21 µM
- Kd [48]: ≥ 5 µM
- Kd [49]: 0.0013 µM
- Kd [50]: ≥ 5 µM
